Article doi:10.1101/361857 (bioRxiv, 2018)
Like-named read-outs stand apart in the source and are kept apart here. Ends that are not written are not given here. * marks the point of attachment. diazirine‑based cleavable photocrosslinker = not defined here; Biotin = O=C1N[C@H]2[C@H](CS[C@H]2CCCCC(=O)*)N1

How the values were obtained:
Assay in all cases: cross-linking
[1] = biological target: T1, JNK1 β-1 isoform lacking 20 amino acids from the C-terminus (JNK1 ΔC20) (human, UniProt P45983-3 1-364)
[2] = biological target: ERK2 (human, UniProt P28482 1-360)
[3] = biological target: T1, JNK1 β-1 isoform lacking 20 amino acids …; remark: listed apart in the source

Chain of ERK2 (P28482 whole entry, canonical isoform): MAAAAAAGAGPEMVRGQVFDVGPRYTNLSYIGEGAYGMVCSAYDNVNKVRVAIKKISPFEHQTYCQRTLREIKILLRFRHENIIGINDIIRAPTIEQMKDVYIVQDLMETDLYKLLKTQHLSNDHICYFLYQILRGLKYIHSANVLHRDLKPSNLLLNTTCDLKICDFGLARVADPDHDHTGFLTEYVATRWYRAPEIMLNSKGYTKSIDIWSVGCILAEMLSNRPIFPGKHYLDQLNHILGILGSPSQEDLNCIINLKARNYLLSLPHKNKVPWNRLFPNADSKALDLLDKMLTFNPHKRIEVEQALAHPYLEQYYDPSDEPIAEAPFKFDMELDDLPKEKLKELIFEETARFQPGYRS

| binding result [1] | binding result [2] | binding result [3] | Binder |
| --- | --- | --- | --- |
| binds | binds |  | Biotin-C(diazirine‑based cleavable photocrosslinker)KRKALKLNFANW (reading uncertain) [MKK4 D-motif peptide II] |
| binds | binds |  | Biotin-C(diazirine‑based cleavable photocrosslinker)GKRKALKLNFANW (reading uncertain) [MKK4 D-motif peptide I] |
|  |  | binds | Biotin-C(diazirine‑based cleavable photocrosslinker)QGKRKALKLNFANW (reading uncertain) [MKK4 D-motif peptide wt (wild-type)] |
